Experimental data taken from PMC9250508 (Nature Communications, 2022).

B1: VIR-7831 (the clinical form of S309-LS) (antibody, V domains shown)
VH: not shown
VL: EIVLTQSPGTLSLSPGERATLSCRASQTVSSTSLAWYQQKPGQAPRLLIYGASSRATGIPDRFSGSGSGTDFTLTISRLEPEDFAVYYCQQHDTSLTFGGGTKVEIK
notes: also called sotrovimab; clinical lead variant of S309-LS; copies: 2 + 2
B2: AZD8895 Fab (Fab, V domains shown)
VH: QMQLVQSGPEVKKPGTSVKVSCKASGFTFMSSAVQWVRQARGQRLEWIGWIVIGSGNTNYAQKFQERVTITRDMSTSTAYMELSSLRSEDTAVYYCAAPYCSSISCNDGFDIWGQGTMVTVSS
VL: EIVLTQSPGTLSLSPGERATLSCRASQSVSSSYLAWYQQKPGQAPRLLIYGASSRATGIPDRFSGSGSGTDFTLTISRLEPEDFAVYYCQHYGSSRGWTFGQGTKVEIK
notes: also called tixagevimab; COV2-2196
B3: AZD1061 Fab (Fab, V domains shown)
VH: EVQLVESGGGLVKPGGSLRLSCAASGFTFRDVWMSWVRQAPGKGLEWVGRIKSKIDGGTTDYAAPVKGRFTISRDDSKNTLYLQMNSLKTEDTAVYYCTTAGSYYYDTVGPGLPEGKFDYWGQGTLVTVSS
VL: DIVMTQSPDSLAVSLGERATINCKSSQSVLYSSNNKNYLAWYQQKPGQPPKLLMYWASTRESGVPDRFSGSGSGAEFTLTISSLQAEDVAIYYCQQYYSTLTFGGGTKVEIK
notes: also called cilgavimab; COV2-2130

Experiments:
[1] = target: T1, SARS-CoV-2 spike glycoprotein, Omicron BA.2, Δ19 C-terminal truncation, on ExpiCHO-S cells (SARS-CoV-2, Omicron BA.2, strain); assay: flow cytometry on cells; conditions: one partner purified
T1 construct: also called BA.2 spike

[2] = target: T2, SARS-CoV-2 spike glycoprotein, Omicron BA.1, Δ19 C-terminal truncation, on ExpiCHO-S cells (SARS-CoV-2, Omicron BA.1 (B.1.1.529), strain); assay: flow cytometry on cells; conditions: one partner purified
T2 construct: also called BA.1 spike

[3] = target: T3, SARS-CoV-2 spike glycoprotein, Wuhan D614, Δ19 C-terminal truncation, on ExpiCHO-S cells (SARS-CoV-2 BetaCoV/Wuhan-Hu-1/2019 …, UniProt P0DTC2); assay: flow cytometry on cells; conditions: one partner purified
T3 construct: also called Wuhan-D614 spike; Wuhan-1 D614

[4] = target: T4, SARS-CoV-2 BA.1 RBD (residues 319–537, C-terminal AviTag and 8xHisTag) (SARS-CoV-2, Omicron BA.1 (B.1.1.529), strain); assay: BLI; conditions: both partners purified
T4 construct: also called Omicron lineage RBD

[5] = target: T5, Purified SARS-CoV-2 BA.2 RBD protein (AcroBiosystem) (SARS-CoV-2, Omicron BA.2, strain); assay: BLI; conditions: both partners purified
T5 construct: also called Omicron lineage RBD; source: bought: AcroBiosystem

Row | Binder | binding result [1] | binding result [2] | binding result [3] | binding result [4] | binding result [5]
1 | B1 | binds | binds | binds | – | –
2 | B2 | – | – | – | binds | binds
3 | B3 | – | – | – | binds | binds
